Experimental data published in a protein production outcome set (Wang et al. 2014).

Test: label from the status in PepcDB records

Row | Sequence | protein production
1 | MQNNSYGYAVSVRVGGKEHRHWERYDIDSDFLIPADSFDFVIGRLGPEAAIPDLSGESCEVVIDGQIVMTGIIGSQRHGKSKGSRELSLSGRDLAGFLVDCSAPQLNVKGMTVLDAAKKLAAPWPQIKAVVLKAENNPALGKIDIEPGETVWQALTHIANSVGLHPWLEPDGTLVVGGADYSSPPVATLCWSRTDSRCNIERMDIEWDTDNRFSEVTFLAQSHGRSGDSAKHDLKWVYKDPTMTLHRPKTVVVSDADNLAALQKQAKKQLADWRLEGFTLTITVGGHKTRDGVLWQPGLRVHVIDDEHGIDAVFFLMGRRFMLSRMDGTQTELRLKEDGIWTPDAYPK | not failed
2 | MQNYGRLFELVPGKLELFKKLQLLTEQFKNYCLLSRNFEAANTVFGQIEEIYSGILKKEPGHILVSAHLLFLYETSADLYTKLGKIEKAEESYLQALDFLSKKQRASPGNTTYVRQQGKVYRMLGRAFYEAGDSGKAAQYAGKALEILRELAGKNPEDLHYQYEISDDFTGLGKLFEDIGDIERAKECHMQEINIYRNIHERDPEDEVSEANIAATLDRIGHLYAGKGETETAKQYYEQGLEAYEKLSESYPEDIDHEVGIANTLGYIGKQYSDPEPETALKYYKKALGILEDVVQTFPDVPVYKEDLIQTLGYLESLASGQKQYENAILYRERITELSRQLASENPENFDYKKELAISFKHMGLLYEKAEKHELAKQQYSKSADVFRQVLQDENEKDLMKGLLALDLQKQATILIHEKNYGLAKEYLALLRDYYEALYEKDPEKPENWKAVCEIRTLCGILHKSMGNYDAAIQIYKSVFSILHKHPVSDPDNPDYQSIIGVLYTQLGIAYHLADEYDKSKEAFEKSIPINTRLLDEETENFLHMGDMAVALAEYSKLLTSMGMKKEAEEYAAKADEIKEKIMKKFRFDEYTVEDGDKKAL | failed
3 | MQNYKSGELALLDVPVPGCKPGGVLVRTAYSLISTGTELMKVSEAGMSMLGKARSRPDQVAKVVQSVATNGVPATYRKVMGKLDSYTPLGYSLCGVVEQVGEGIDDVKAGDLVACAGNEHALHAELNWVPRNLYAPVPDGLAARDAAFGTVGSIALQGVRQGESRLGETALVIGLGLIGQLVVQLLVASGVRVVGADPDAERCELAERLGAAACGDPASPAVESAVVELTDGHGVDQVYLAAGGGSNQPVELAARLCRDRGRVVDIGKCRLDLPWNAYYEKELDVRFSRSYGPGRYDPEYELEGRDYPIGYVRWTERRNLACFLDLVARGRVDVAPLITRTADFDDAVETYRSLQDGALKAVAVLFRYPGQPDAEAPAGAPAVTVPGVRRGAGAAAPARAARTPVRLAFVGAGNYATSMLLPHLARREGVELSTVVTTTALSAANAQRKFGFGEATTDLDAVLGDASVDAVFVVTRHSSHAELTRKALLAGKAVFVEKPLALTGEELTGVLAAVEESGNDRVQVGFNRRFAPLLQEARKRFGARTGPASLRYLVNAGRLDHGSWYLQQGTEGSRFAGEGGHFVDTASWLLGADPVSVYALAPSSNEDLQVVLGYPDGSTATLSYVTTGAAGFPKETLDLVADGKVLQLDDFVRSSVYDGRKRWVSSRLPKARDKGQSAELAAFVRAVRTGGPMPVPLESLVATTAATLAVRTALAAGAPVGLAEAR | failed
4 | MQPIDRAQAQQRANDILVFQRELQRLDQEQAFRLEPAQARQLADYHLALLDSYRDRFDIDHDLRSQQLSLGMRVASFFGALAFAASVFLLFYRFWGLFPTVAQVAILIGSAFAAFFATLWVQAKDASGYFSKLAAMVAFACFVLDLTMLGQIFNVTPSDLALVPWALYALLLAYLCNARLLLAAAILCVMGFIAARVGTWGGGYWLSVGERPENFFPAAALIFAVPLCFDQRNFSGFAVIYRVFALLGLFLPMLVLANWGSGSYLALPSALIEGLYQVAGFVAAALVIWLGARRNWADVSNTGITFFVIFLYTKFFDWWWEAMPKYLFFLVLGLSALLILLVLRRLRTPLGIAARTDA | failed
5 | MQPLVSTVLVPSQGIPLCCNEICLKSLQKEVAMPLKDLLIALVVIVAWGVNFVVIKVGLDGLPPMLLGALRFLLVAFPAILLVRRPKLPWRWLIAYGATISLGQFAFLFQAMYSGMPPGLASLILQSQAFFTLGFAALFLGERLRLASVLGLLVAAGGLALIGSEDGGHVPMLALVLTLCGGAMWGLGNIITRRFGSVDLVALVIWGGLIPPLPFLALSWWLEGPERIGHALANISWSSVLALAYLAFVATMLGYSLWSKLLSRHPAGKVAPFSLLVPVIGLSSSALLLGERLTATQGWGALLVMAGLLVNVFGARIGQRLRAANA | failed
6 | MQPLVSVLICAYNVEKYFAQSLAAVVNQTWRNLDILIVDDGSTDGTPAIARRFQEQDGRIRIISNPRNLGFIASLNIGLDELAKSGGGGEYIARTDADDIASPGWIEKIVGEMEKDRSIIAMGAWLEVLSEENNKSVLAAIARNGAIWDKPTRHEDIVAVFPFGNPIHNNTMIMRRSVIDGGLRFDPAYIHAEDYKFWYEAGKLGRLAYYPEALVKYRFHQDQTSSKYNLQQRRTAWKIKEEIRAGYWKAAGIAVGADCLNYGLLKSTAYALYEKALSGQDIGCLRLFLYEYFLSLEKYSLTDLLDFLTDRVMRKLFAAPQYRKILKKMLRPWKYRSYLEHHHHHH | failed
7 | MQPYEKYLKLNSQKLRADQTDTERKLWQRINRDQLLGFRFNRQKPLLSYIVDFYCAKTKLIIELDGSQHYKPDYQEKDALRDAELNSLGFTVMRFSNDEVMREIEAVVEQIYLFLENVRTD | failed
8 | MQQFHIRRLREEDIPLLKGLLVELDTSHYEAEPNFYRSPEEMAQLREERGVFDKYFDDSMIAFIACSHRQVVGFISGTVRDIDSMVSVAKRVGFVNELVVSESHRNLGIGLSLMDKIESDLCNQGIEEIGLTVASFNHEGEDFYHKMGYRVMTKMMSKRVKDLEHHHHHH | not failed
9 | MQQINFYRQRVAINVLAKDIANAKAIYEAAEGHAVIGVLSAQFATVEEGVPEVKRWMAEVPSISVGLGAGDPAQYYKAAMIAAHTHPAHVNQTFTGSGFAAGALAATGGEQTHINALVSPTGTPGEVVISTGVSSSQGTPARVSCEAAVRMMQDMGAHAAKFFPMGGEKSLPELYALATTAARHGMTLIEPTGGISLDNFGIILQTCLEAGVPRVMPHVYSSIIDPQTGNTRPEDIIQLMEIVKALV | failed
10 | MQQIWGSERRRTAIGRMALSVPARQALADRQLVAERTILDYGCGRGDDVRALQQLDCQVVGWDPYYRTDTQLVATDVVLLTYVLNVIEDPAERRQTLKQAWELTSTLLVVSARLTWEKSKVHGEGFGDGLLTSRQTFQHLYATSELREYVEQVTGAR | failed
11 | MQQKLENIKFVITDVDGVLTDGQLHYDANGEAIKSFHVRDGLGIKMLMDADIQVAVLSGRDSPILRRRIADLGIKLFFLGKLEKETACFDLMKQAGVTAEQTAYIGDDSVDLPAFAACGTSFAVADAPIYVKNAVDHVLSTHGGKGAFREMSDMILQAQGKSSVFDTAQGFLKSVKSMGQ | not failed
12 | MQQMNSRLKLTMAVALTAIVLLAGCASTPDWPVSARDNTKPVYSEKLLEQVPFYPQEKYQCGPASLAMMLNAQGLATNPDILKELVYLPGKEGSLQVEMVAGARAHDMLVYRLEPEPEAILAEVEAGNPVLVMQNLRLSWWPQWHFAVVVGYDSTEQVFILNTDTRRHYEMPYKVFYNTWSKAERWAAVILPPDQTPASAEMLPYLQAAHDLETTGHTLAAQRAYQTAITRWPEQPTPLMANANLQYQLGHFQNAVGSFLRVVEKFPGFSEGWNNLAIALNDAGCPARARQASECAAGLAPKRFKPLQDEARSHAADAAACPQIPACPSNAH | failed
13 | MQQPTASVVSYVAEYHKATETTMGRYKKVIEITGHDEVAAKLLEGLIDAGTRYFSKVVEMEHRMASARFRLDGEELRELTETLDRSRRLAHESLISSLHVFNRYIVKEYGEELKEAGIEGGIFPKPEANRDRIAIADWAGELLTGIYENRHR | not failed
14 | MQRFIDNSLESNWLWLTARICLALMFVASGLAKLFDYQASLEEMRAAGLEPAWLFNIATAVTLLAGSALVLLDRKLWLGAGALAVFLLLTILIVHTFWSKTGVEAKLAMFFALEHIAVIGGLIATAIASAQRQRLRQDVSVAATYQKA | failed
15 | MQRIRIIDSHTGGEPTRLVIGGFPDLGQGDMAERRRLLGERHDAWRAACILEPRGSDVLVGALLCAPVDPEACAGVIFFNNSGYLGMCGHGTIGLVASLAHLGRIGPGVHRIETPVGEVEATLHEDGSVSVRNVPAYRYRRQVSVEVPGIGRVSGDIAWGGNWFFLVAGHGQRLAGDNLDALTAYTVAVQQALDDQDIRGEDGGAIDHIELFADDPHADSRNFVLCPGKAYDRSPCGTGTSAKLACLAADGKLLPGQPWRQASVIGSQFEGRYEWLDGQPGGPIVPTIRGRAHVSAEATLLLADDDPFAWGIRR | not failed
